For 39 variants, self-cleavage results are on record in the RNAGym collection of RNA variant scans (doi:10.7554/elife.90254).

B1: LINE1-full (parent)
chain: UACGUAGGUGGUUUUCCCCUGAUAGUGCUAAGGGGGCCUGGAAGUUUGGACUGGGCAGAGCUCAACACAGCGUGGCAAAGUGGCUGUGGCUAGACUGCCUCUCUGGAUUCCUCGUCACUCAGCAGGGCAUCUCUGAGAGAAAUGCC

The variants in the data set derive from B1. In words: self-cleavage, relative activity (ratio to wild type); higher = more cleavage; in vitro, sequencing; the parent is a self-cleaving ribozyme.
For UACGUAGGUGGUUUUCCCCUGAUAGUGCUAAGGGGGCCUGGAGGUUUGGACUGGGCAGAGCUCAACACAGCGUGGCAAAGUGGCUGUGGCUAGACUGCCUCUCUGGAUUCCUCGUCACUCAGCAGAGCAUCUCUGAGAGAAAUGCC [A43G G126A], the self-cleavage worked out at 1.16.

As to UACGUAGGUGGUUUUCCCCUGAUAGUGCUAAGGGGGCCUGGAGGUUUGGACUGGGCAGAGCUCAACACAGCGUGGCAAAGUGGCUGUGGCUAGACUGCCUCUCUGGAUUCCUCGUCACUUAGCAGGGCAUCUCUGAGAGAAAUGCC [A43G C120U], the self-cleavage is 1.52.

UACGUAGGUGGUUUUCCCCUGAUAGUGCUAAGGGGGCCUGGAGGUUUGGACUGGGCAGAGCUCAACACAGCGUGGCAAAAUGGCUGUGGCUAGACUGCCUCUCUGGAUUCCUCGUCACUCAGCAGGGCAUCUCUGAGAGAAAUGCC [A43G G80A]: the self-cleavage was determined as 1.48.

With UACGUAGGUGGUUUUCCCCUGAUAGUGCUAAGGGGGCCUGGAGGUUUGGACUGGGCAGAGCUCAACACAGCGUGGCAAAGUGGCUGCGGCUAGACUGCCUCUCUGGAUUCCUCGUCACUCAGCAGGGCAUCUCUGAGAGAAAUGCC [A43G U87C], the self-cleavage was found to be 0.32.

With UACGUAGGUGGUUUUCCCCUGAUAGUGCUAAGGGGGCCUGGAGGUUUGGACUGGGCAGAGCUCAACACAGCGUGGCAAAGUGGCUAUGGCUAGACUGCCUCUCUGGAUUCCUCGUCACUCAGCAGGGCAUCUCUGAGAGAAAUGCC [A43G G86A], the self-cleavage was 0.06.

In the case of UACGUAGGUGGUUUUCCCCUGAUAGUGCUAAGGGGGCCUGGAGGUUUGGACUGGGCAGAGCUCAACACAGCGUGGCAAAGUGGCUUUGGCUAGACUGCCUCUCUGGAUUCCUCGUCACUCAGCAGGGCAUCUCUGAGAGAAAUGCC [A43G G86U], the self-cleavage came out at 0.03.

Take UACGUAGGUGGUUUUCCCCUGAUAGUGCUAAGGGGGCCUGGAGGUUUGGACUGGGCAGAGCUCAACACAGCGUGGCAAAGUGGCUGUGGCUAGACUGCCUCUCUGGAUUCCUCGUCACUCAGCAGGGCAUCUCUGAGAGAAAUGCU [A43G C146U]: the self-cleavage stood at 1.69.

Turning to UACGUAGGUGGUUUUCCCCUGAUAGUGCUAAGGGGGCCUGGAGGUUUGGACUGGGCAGAGCUCAACACAGCGUGGCAAAGUGGCUGUGGCUAGACUGCCUCUCUGGAUUCCUUGUCACUCAGCAGGGCAUCUCUGAGAGAAAUGCC [A43G C113U], the self-cleavage turned out to be 1.12.

For UACGUAGGUGGUUUUCCCCUGAUAGUGCUAAGGGGGCCUGGAGGUUUGGACUGGGCAGAGCUCAACACAUCGUGGCAAAGUGGCUGUGGCUAGACUGCCUCUCUGGAUUCCUCGUCACUCAGCAGGGCAUCUCUGAGAGAAAUGCC [A43G G70U], the self-cleavage was determined as 0.15.

Turning to UACGUAGGUGGUUUUCCCCUGAUAGUGCUAAGGGGGCCUGGAGGUUUGGACUGGGCAGAGCUCAACACAACGUGGCAAAGUGGCUGUGGCUAGACUGCCUCUCUGGAUUCCUCGUCACUCAGCAGGGCAUCUCUGAGAGAAAUGCC [A43G G70A], the self-cleavage was 0.11.

On to UACGUAGGUGGUUUUCCCCUGAUAGUGCUAAGGGGGCCUGGAGGUUUGGACUGGGCAGAGCCCAACACAGCGUGGCAAAGUGGCUGUGGCUAGACUGCCUCUCUGGAUUCCUCGUCACUCAGCAGGGCAUCUCUGAGAGAAAUGCC [A43G U62C], for which the self-cleavage turned out to be 0.1.

Regarding UACGUAGGUGGUUUUCCCCUGAUAGUGCUAAGGGGGCCUGGAGGUUUGGACUGGGCAGAGCUCAACACAGCGUGGCAAAGUGGCUGUGGCUAGACUGCCUCUCUGGAUUCCUCGUCACUCAGCAGGGUAUCUCUGAGAGAAAUGCC [A43G C128U], the self-cleavage was 0.79.

Consider UACGUAGGUGGUUUUCCCCUGAUAGUGCUAAGGGGGCCUGGAGGUUUGGACUGGGCAGAGCUCAACACAGCGAGGCAAAGUGGCUGUGGCUAGACUGCCUCUCUGGAUUCCUCGUCACUCAGCAGGGCAUCUCUGAGAGAAAUGCC [A43G U73A], for which the self-cleavage was determined as 1.53.

For the variant UACGUAGGUGGUUUUCCCCUGAUAGUGCUAAGGGGGCCUGGAGGUUUGGACUGGGCAGAGCUCAACACAGCGCGGCAAAGUGGCUGUGGCUAGACUGCCUCUCUGGAUUCCUCGUCACUCAGCAGGGCAUCUCUGAGAGAAAUGCC [A43G U73C], the self-cleavage came out at 1.3.

Take UACGUAGGUGGUUUUCCCCUGAUAGUGCUAAGGGGGCCUGGAGGUUUGGACUGGGCAGAGCUCAACACAGCGUGGCAAAGUGGCUGUGGCUAGACUGCCUCUCUGGAUUCCUCGUCACUCAGCAGGCCAUCUCUGAGAGAAAUGCC [A43G G127C]: the self-cleavage came out at 0.77.

For the variant UACGUAGGUGGUUUUCCCCUGAUAGUGCUAAGGGGGCCUGGAGGUUUGGACUGGGCAGAGCUCAACACAGCGUGGCAAAGUGGCUGUGGCUAGACUGCCUCUCUGGAUUCCUCGUCACUCAGCAGGACAUCUCUGAGAGAAAUGCC [A43G G127A], the self-cleavage came out at 0.98.

As for UACGUAGGUGGUUUUCCCCUGAUAGUGCUAAGGGGGCCUGGAGGUUCGGACUGGGCAGAGCUCAACACAGCGUGGCAAAGUGGCUGUGGCUAGACUGCCUCUCUGGAUUCCUCGUCACUCAGCAGGGCAUCUCUGAGAGAAAUGCC [A43G U47C], the self-cleavage turned out to be 1.31.

For UACGUAGGUGGUUUUCCCCUGAUAGUGCUAAGGGGGCCUGGAGGUUUGGACUGGGCAGAGCUCAACACAGCGUGGCAAAGCGGCUGUGGCUAGACUGCCUCUCUGGAUUCCUCGUCACUCAGCAGGGCAUCUCUGAGAGAAAUGCC [A43G U81C], the self-cleavage was 1.32.

As for UACGUAGGUGGUUUUCCCCUGAUAGUGCUAAGGGGGCCUGGAGGUUUGGACUGGGCAGAGCUCAACACAGCGUGGCAAAGUAGCUGUGGCUAGACUGCCUCUCUGGAUUCCUCGUCACUCAGCAGGGCAUCUCUGAGAGAAAUGCC [A43G G82A], the self-cleavage was found to be 1.31.

On to UACGUAGGUGGUUUUCCCCUGAUAGUGCUAAGGGGGCCUGGAGGUUUGGACUGGGCAGAGCUCAACACAGCGUGGCAAAGUGGCUGUGGCUAGACUGCCUCUCUGGAUUCCUCGUCACUCAGCAGGGCAUCUCUGAGAGAAAUACC [A43G G144A], for which the self-cleavage is 1.39.

With UACGUAGGUGGUUUUCCCCUGAUAGUGCUAAGGGGGCCUGGAGGUUUGGACUGGGCAGAGCUCAACACAGCGUAGCAAAGUGGCUGUGGCUAGACUGCCUCUCUGGAUUCCUCGUCACUCAGCAGGGCAUCUCUGAGAGAAAUGCC [A43G G74A], the self-cleavage was 1.17.

Consider UACGUAGGUGGUUUUCCCCUGAUAGUGCUAAGGGGGCCUGGAGGUUUGGACUGGGCAGAGCUCAACACAGCGUGGCAAAGUGGCUGUGGCUAGACUGCCUCUCUUGAUUCCUCGUCACUCAGCAGGGCAUCUCUGAGAGAAAUGCC [A43G G105U], for which the self-cleavage was 1.65.

In the case of UACGUAGGUGGUUUUCCCCUGAUAGUGCUAAGGGGGCCUGGAGGUUUGGACUGGGCAGAGCUCAACACAGCGUGGCAAAGUGGCAGUGGCUAGACUGCCUCUCUGGAUUCCUCGUCACUCAGCAGGGCAUCUCUGAGAGAAAUGCC [A43G U85A], the self-cleavage was 0.1.

For the variant UACGUAGGUGGUUUUCCCCUGAUAGUGCUAAGGGGGCCUGGAGGUUUGGACUGGGCAGAGCUCAACACAGCGUGGCAAAGUGGCCGUGGCUAGACUGCCUCUCUGGAUUCCUCGUCACUCAGCAGGGCAUCUCUGAGAGAAAUGCC [A43G U85C], the self-cleavage was determined as 0.2.

Take UACGUAGGUGGUUUUCCCCUGAUAGUGCUAAGGGGGCCUGGAGGUUUGGACUGGGCAGAGCUCAACACAGCGUGGCAAAGUGGCGGUGGCUAGACUGCCUCUCUGGAUUCCUCGUCACUCAGCAGGGCAUCUCUGAGAGAAAUGCC [A43G U85G]: the self-cleavage turned out to be 0.15.

As for UACGUAGGUGGUUUUCCCCUGAUAGUGCUAAGGGGGCCUGGAGGUUUGGACUGGGCAGAGCUCAACACAGCGUGGCAAAGUGGCUGUGGCUAGACUGCCUCUCUGGAUUCUUCGUCACUCAGCAGGGCAUCUCUGAGAGAAAUGCC [A43G C111U], the self-cleavage is 0.93.

For UACGUAGGUGGUUUUCCCCUGAUAGUGCUAAGGGGGCCUGGAGGUCUGGACUGGGCAGAGCUCAACACAGCGUGGCAAAGUGGCUGUGGCUAGACUGCCUCUCUGGAUUCCUCGUCACUCAGCAGGGCAUCUCUGAGAGAAAUGCC [A43G U46C], the self-cleavage was found to be 0.53.

As for UACGUAGGUGGUUUUCCCCUGAUAGUGCUAAGGGGGCCUGGAGGCUUGGACUGGGCAGAGCUCAACACAGCGUGGCAAAGUGGCUGUGGCUAGACUGCCUCUCUGGAUUCCUCGUCACUCAGCAGGGCAUCUCUGAGAGAAAUGCC [A43G U45C], the self-cleavage is 1.1.

With UACGUAGGUGGUUUUCCCCUGAUAGUGCUAAGGGGGCCUGGAGGUUUGGACUGGGCAGAGCUCAACACAGCGUGGCAAAGUGGCUGUGGCUAGACUGCCUCUCUGGAUUCCUCGUUACUCAGCAGGGCAUCUCUGAGAGAAAUGCC [A43G C116U], the self-cleavage came out at 1.22.

In the case of UACGUAGGUGGUUUUCCCCUGAUAGUGCUAAGGGGGCCUGGAGGUUUUGACUGGGCAGAGCUCAACACAGCGUGGCAAAGUGGCUGUGGCUAGACUGCCUCUCUGGAUUCCUCGUCACUCAGCAGGGCAUCUCUGAGAGAAAUGCC [A43G G48U], the self-cleavage came to 1.28.

In the case of UACGUAGGUGGUUUUCCCCUGAUAGUGCUAAGGGGGCCUGGAGGUUUGGACUGGGCAGAGCUCAACACAGCGUGACAAAGUGGCUGUGGCUAGACUGCCUCUCUGGAUUCCUCGUCACUCAGCAGGGCAUCUCUGAGAGAAAUGCC [A43G G75A], the self-cleavage was 1.06.

With UACGUAGGUGGUUUUCCCCUGAUAGUGCUAAGGGGGCCUGGAGGUUUGGACUGGGCAGAGCUCAACACAGCGUGGCAAAGUGGCUGUGGCUAGACUGCCUCUUUGGAUUCCUCGUCACUCAGCAGGGCAUCUCUGAGAGAAAUGCC [A43G C103U], the self-cleavage stood at 1.25.

With UACGUAGGUGGUUUUCCCCUGAUAGUGCUAAGGGGGCCUGGAGGUUUGGACUGGGCAGAGCUCAACACAGCGUGGCAAAGUGGCUGUGGCUAGACUGCCUCUCUGGAUUCCUCGUCAUUCAGCAGGGCAUCUCUGAGAGAAAUGCC [A43G C118U], the self-cleavage came out at 1.19.

UACGUAGGUGGUUUUCCCCUGAUAGUGCUAAGGGGGCCUGGAGGUUUGGACUGGGCAGAGCUCAACACAGCGUGGCAAAGUGGCUGUGGCUAAACUGCCUCUCUGGAUUCCUCGUCACUCAGCAGGGCAUCUCUGAGAGAAAUGCC [A43G G93A]: the self-cleavage turned out to be 0.1.

In the case of UACGUAGGUGGUUUUCCCCUGAUAGUGCUAAGGGGGCCUGGAGGUUUGGACUGGGCAGAGCUCAACACAGCGUGGCAAAGUGGCUGUGGCUAGACUGCCUCUCUGGAUUCCUCGUCACUCAACAGGGCAUCUCUGAGAGAAAUGCC [A43G G122A], the self-cleavage came out at 0.19.

For the variant UACGUAGGUGGUUUUCCCCUGAUAGUGCUAAGGGGGCCUGGAGGUUUGGACUGGGCAGAGCUCAACACAGCGUGGCAAAGUGGCUGUGGCUAGACUACCUCUCUGGAUUCCUCGUCACUCAGCAGGGCAUCUCUGAGAGAAAUGCC [A43G G97A], the self-cleavage was determined as 0.04.

Regarding UACGUAGGUGGUUUUCCCCUGAUAGUGCUAAGGGGGCCUGGAGGUUUGGACCGGGCAGAGCUCAACACAGCGUGGCAAAGUGGCUGUGGCUAGACUGCCUCUCUGGAUUCCUCGUCACUCAGCAGGGCAUCUCUGAGAGAAAUGCC [A43G U52C], the self-cleavage stood at 1.13.

With UACGUAGGUGGUUUUCCCCUGAUAGUGCUAAGGGGGCCUGGAGGUUUGGACAGGGCAGAGCUCAACACAGCGUGGCAAAGUGGCUGUGGCUAGACUGCCUCUCUGGAUUCCUCGUCACUCAGCAGGGCAUCUCUGAGAGAAAUGCC [A43G U52A], the self-cleavage turned out to be 1.43.

On to UACGUAGGUGGUUUUCCCCUGAUAGUGCUAAGGGGGCCUGGAGGUUUGGACUGGGCAGAGCUCAACACAGCGUGGCAAAGUGGCUGUGGCUAGACUGCCUCUCUGAAUUCCUCGUCACUCAGCAGGGCAUCUCUGAGAGAAAUGCC [A43G G106A], for which the self-cleavage stood at 1.36.
